This data set deals with the molecule itself. Kind of data set: co-IP; 293T cells co-transfected; lysates in NP40 buffer (50 mM Tris-HCl pH 7.4, 150 mM NaCl, 5 mM EDTA, 1% NP40) precipitated with anti-Flag agarose at 4°C for 4-6 hours; immunoblot.

We go through one protein from article PMC4519330, “An Internally Translated MAVS Variant Exposes Its Amino-terminal TRAF-Binding Motifs to Deregulate Interferon Induction” (PLoS Pathogens, 2015).

B1: Flag-tagged MAVS50 (natural protein, human, UniProt Q7Z434 142-540, looked up)
chain: MPVQETQAPESPGENSEQALQTLSPRAIPRNPDGGPLESSSDLAALSPLTSSGHQEQDTELGSTHTAGATSSLTPSRGPVSPSVSFQPLARSTPRASRLPGPTGSVVSTGTSFSSSSPGLASAGAAEGKQGAESDQAEPIICSSGAEAPANSLPSKVPTTLMPVNTVALKVPANPASVSTVPSKLPTSSKPPGAVPSNALTNPAPSKLPINSTRAGMVPSKVPTSMVLTKVSASTVPTDGSSRNEETPAAPTPAGATGGSSAWLDSSSENRGLGSELSKPGVLASQVDSPFSGCFEDLAISASTSLGMGPCHGPEENEYKSEGTFGIHVAENPSIQLLEGNPGPPADPDGGPRPQADRKFQEREVPCHRPSPGALWLQVAVTGVLVVTLLVVLYRRRLH
notes: MAVS (mitochondrion antiviral signaling adaptor), variant of ~50 kDa from internal translation initiation at codon 142; also called MAVS50-Flag; Flag-MAVS50
B1: the binding result is “binds”.
